# Data from paper PMC4349574 (Developmental cell, 2013).
# B1: GST-Efr3-C_(651–730) (domain or fragment, S. cerevisiae, UniProt Q03653 651-730, looked up)
# chain: APKVSDLKKTMNEKNIPNNMKRDGSFRGSQSVKSRVTNITFLLNELKTFSDDANKIKDPDEENIVGLDKIDVARSNSLRL
# Target: T1, Ypp1 (residues 11–817), purified, GST tag removed (S. cerevisiae, UniProt P46951 11-817)
# T1 sequence (looked up): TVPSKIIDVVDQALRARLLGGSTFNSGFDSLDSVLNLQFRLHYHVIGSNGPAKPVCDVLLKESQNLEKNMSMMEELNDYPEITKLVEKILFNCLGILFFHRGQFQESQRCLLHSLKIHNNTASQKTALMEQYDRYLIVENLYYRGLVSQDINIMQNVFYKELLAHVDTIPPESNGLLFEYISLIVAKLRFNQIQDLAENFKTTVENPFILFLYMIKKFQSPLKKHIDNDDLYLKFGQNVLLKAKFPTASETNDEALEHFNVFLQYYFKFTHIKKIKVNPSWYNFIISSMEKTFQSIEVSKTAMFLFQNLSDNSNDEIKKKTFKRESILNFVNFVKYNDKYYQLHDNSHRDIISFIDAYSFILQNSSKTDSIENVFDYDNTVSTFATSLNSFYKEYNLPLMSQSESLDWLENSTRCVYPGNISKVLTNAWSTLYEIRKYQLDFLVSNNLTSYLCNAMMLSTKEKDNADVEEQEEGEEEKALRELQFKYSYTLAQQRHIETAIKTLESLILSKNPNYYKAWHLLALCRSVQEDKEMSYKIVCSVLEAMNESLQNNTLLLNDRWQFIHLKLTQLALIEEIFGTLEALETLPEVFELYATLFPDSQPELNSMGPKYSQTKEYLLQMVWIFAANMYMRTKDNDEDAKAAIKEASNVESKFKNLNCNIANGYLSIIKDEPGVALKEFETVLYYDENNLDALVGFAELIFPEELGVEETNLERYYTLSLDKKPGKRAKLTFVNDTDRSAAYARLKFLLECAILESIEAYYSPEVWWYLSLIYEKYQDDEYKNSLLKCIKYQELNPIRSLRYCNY
# Test: pull-down
binder,measurement,value
B1,binding result,binds
